B1: T cell receptor interacting molecule (TRIM) (natural protein)
chain: MSGISGCPFFLWGLLALLGLALVISLIFNISHYVEKQRQDKMYSYSSDHTRVDEYYIEDTPIYGNLDDMISEPMDENCYEQMKARPEKSVNKMQEATPSAQATNETQMCYASLDHSVKGKRRKPRKQNTHFSDKDGDEQLHAIDASVSKTTLVDSFSPESQAVEENIHDDPIRLFGLIRAKREPIN

Experiments:
[1] = molecular target: CD3-ε (human (endogenous in HPB-ALL)) (UniProt P07766); assay: co-IP
[2] = molecular target: the molecule itself; assay: non-reducing and reducing SDS-PAGE with Western blot

CD3-ε (human (endogenous in HPB-ALL)), sequence (P07766 23-207): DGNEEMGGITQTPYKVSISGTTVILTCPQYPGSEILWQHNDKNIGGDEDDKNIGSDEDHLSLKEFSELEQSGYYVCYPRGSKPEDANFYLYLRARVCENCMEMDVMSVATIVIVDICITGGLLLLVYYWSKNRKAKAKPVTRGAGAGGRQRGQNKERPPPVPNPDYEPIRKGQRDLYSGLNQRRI

Molecule | reduction of TRIM in the lysate after depletion of CD3 [1] [%] | stoichiometry N [2]
T cell receptor interacting molecule (TRIM) (from UniProt Q6PIZ9 1-186) (natural protein) | 67 | –
B1 | – | 2

From article PMC2212462 (The Journal of Experimental Medicine, 1998)
